Test results as given in paper PMC8787470, “Functional Irreplaceability of Escherichia coli and Shewanella oneidensis OxyRs Is Critically Determined by Intrinsic Differences in Oligomerization” (mBio, 2022).

Experiments:
[1] = molecular target: the molecule itself; experiment: crystal structure; SoOxyR RD C203S crystallised at 20°C by hanging-drop vapor diffusion, 4.0 M ammonium acetate, 0.1 M Bis-Tris propane pH 7.0; six molecules in the asymmetric unit; interfaces listed with PDBePISA
[2] = molecular target: the molecule itself; experiment: native gel or EMSA; oligomers read from shifted bands of protein on DNA: 10 nM digoxigenin-labelled 188 bp katB promoter probe, various amounts of His6-OxyR variant, 4 mM Tris-HCl pH 8.0, 40 mM NaCl, 4 mM MgCl2, 4% glycerol, poly(dI-dC), room temperature 15 min, 7% native polyacrylamide gel

B1: SoOxyR RD_(C203S) (regulatory domain of Shewanella oneidensis OxyR, residues 91 to 304, C203S) (domain or fragment, UniProt Q8EHA1 91-304, looked up)
chain: EPMTGDIRLGCIPTIAPFLLSRVVKQCQQAYPEMSLLLKEDTTERLLDALGKGELDLLILALPVDTSGYHSMKVGIDPFKMVIHKDLVGGIHQPIDYQTLPDESIFLLQSEHSITGHAITACQLGDSAKVNPFAATSLHTLVQMVNSKLGTTFLPQMAIDAGILNDTDLVVMTPPGEAPYRDIGLVWRQTTSRILTFRTLGLLIQKLLTNETAQ
notes: OxyR of Shewanella oneidensis, regulatory domain (RD), residues 91 to 304 of the full-length protein, locked in the reduced form by C203S; Six molecules in the crystallographic asymmetric unit; also called RD_(C203S) of SoOxyR; SoOxyR^C203S RD
**Q.** Does B1 bind [1]?
**A.** Result: binds

B2: OxyR_(R288E+F287A) (SoOxyR double point mutant) (natural protein, Shewanella oneidensis, UniProt Q8EHA1 1-304, looked up)
chain: MKNLPSLKNLYYLVNLHQEQNFNRAAKVCFVSQSTLSSGIQNLEEQLGHQLIERDHKSFMFTAIGEEVVQRSRKILTDVDDLVELVKNQGEPMTGDIRLGCIPTIAPFLLSRVVKQCQQAYPEMSLLLKEDTTERLLDALGKGELDLLILALPVDTSGYHSMKVGIDPFKMVIHKDLVGGIHQPIDYQTLPDESIFLLQSEHCITGHAITACQLGDSAKVNPFAATSLHTLVQMVNSKLGTTFLPQMAIDAGILNDTDLVVMTPPGEAPYRDIGLVWRQTTSRILTAETLGLLIQKLLTNETAQ
notes: OxyR of Shewanella oneidensis, the whole protein with two point mutations in helix α10; also called SoOxyR_(R288E-F287A); not shown: His6, N-terminal, kept
**Q.** B2 was tested. Which “stoichiometry N” value [2] did it give?
**A.** Its value is 4.

B3: OxyR^Δ290− (SoOxyR truncation lacking all residues after 290) (domain or fragment, Shewanella oneidensis, UniProt Q8EHA1 1-290, looked up)
chain: MKNLPSLKNLYYLVNLHQEQNFNRAAKVCFVSQSTLSSGIQNLEEQLGHQLIERDHKSFMFTAIGEEVVQRSRKILTDVDDLVELVKNQGEPMTGDIRLGCIPTIAPFLLSRVVKQCQQAYPEMSLLLKEDTTERLLDALGKGELDLLILALPVDTSGYHSMKVGIDPFKMVIHKDLVGGIHQPIDYQTLPDESIFLLQSEHCITGHAITACQLGDSAKVNPFAATSLHTLVQMVNSKLGTTFLPQMAIDAGILNDTDLVVMTPPGEAPYRDIGLVWRQTTSRILTFRTL
notes: OxyR of Shewanella oneidensis, C-terminal truncation; the series is defined by SoOxyR^Δ283− (truncation lacking all residues after R283); also called SoOxyR^Δ290−; not shown: His6, N-terminal, kept
**Q.** B3 was tested. Which “stoichiometry N” value [2] did it give?
**A.** The value was 4.

B4: OxyR^Δ286− (SoOxyR truncation lacking all residues after 286) (domain or fragment, Shewanella oneidensis, UniProt Q8EHA1 1-286, looked up)
chain: MKNLPSLKNLYYLVNLHQEQNFNRAAKVCFVSQSTLSSGIQNLEEQLGHQLIERDHKSFMFTAIGEEVVQRSRKILTDVDDLVELVKNQGEPMTGDIRLGCIPTIAPFLLSRVVKQCQQAYPEMSLLLKEDTTERLLDALGKGELDLLILALPVDTSGYHSMKVGIDPFKMVIHKDLVGGIHQPIDYQTLPDESIFLLQSEHCITGHAITACQLGDSAKVNPFAATSLHTLVQMVNSKLGTTFLPQMAIDAGILNDTDLVVMTPPGEAPYRDIGLVWRQTTSRILT
notes: OxyR of Shewanella oneidensis, C-terminal truncation; the series is defined by SoOxyR^Δ283− (truncation lacking all residues after R283); also called SoOxyR^Δ286−; not shown: His6, N-terminal, kept
**Q.** Does B4 bind [2]?
**A.** Result: binds
